{"source": "paper PMC7782693", "about": "“Structural insights into photoactivation of plant Cryptochrome-2” (Communications Biology, 2021)", "proteins": {"B1": {"name": "Arabidopsis CRY2 photolyase homologous region (PHR) domain (domain or fragment, Arabidopsis thaliana, UniProt Q96524 1-498, looked up)", "chain": "MKMDKKTIVWFRRDLRIEDNPALAAAAHEGSVFPVFIWCPEEEGQFYPGRASRWWMKQSLAHLSQSLKALGSDLTLIKTHNTISAILDCIRVTGATKVVFNHLYDPVSLVRDHTVKEKLVERGISVQSYNGDLLYEPWEIYCEKGKPFTSFNSYWKKCLDMSIESVMLPPPWRLMPITAAAEAIWACSIEELGLENEAEKPSNALLTRAWSPGWSNADKLLNEFIEKQLIDYAKNSKKVVGNSTSLLSPYLHFGEISVRHVFQCARMKQIIWARDKNSEGEESADLFLRGIGLREYSRYICFNFPFTHEQSLLSHLRFFPWDADVDKFKAWRQGRTGYPLVDAGMRELWATGWMHNRIRVIVSSFAVKFLLLPWKWGMKYFWDTLLDADLECDILGWQYISGSIPDGHELDRLDNPALQGAKYDPEGEYIRQWLPELARLPTEWIHHPWDAPLTVLKASGVELGTNYAKPIVDIDTARELLAKAISRTREAQIMIGAA", "notes": "Cryptochrome-2 (CRY2), Arabidopsis thaliana, PHR domain, residues 1-498, wild type; Expressed as a GST fusion from the pFastbac-GST vector; GST removed by TEV protease on the column; The crystal holds four copies (monomers A-D); in solution mostly monomer; also called AtCRY2-PHR; CRY2-PHR"}}, "key": {"[1]": {"molecular_target": "the molecule itself", "test": "SEC; Superdex-200 gel filtration, 20 mM Tris pH 8.0, 200 mM NaCl, 2 mM DTT, 4% glycerol; molecular weights estimated against standards"}, "[2]": {"molecular_target": "the molecule itself", "test": "crystal structure; hanging-drop vapor diffusion at 25 °C under continuous full-spectrum white light (40 μmol m^2 s^-1); 1.5 M sodium nitrate, 0.1 M BIS-TRIS propane pH 7.0; tetramer of four monomers A-D"}}, "data": [{"protein": "B1", "values": [{"measurement": "stoichiometry N", "setting": "[1]", "result": 2}, {"measurement": "stoichiometry N", "setting": "[2]", "result": 4}]}]}
